Experimental findings from patent publication US20260258115A1 (MAPP BIOPHARMACEUTICAL, published 2026) are described below.

One experiment addresses RSV F on RSV-A2 virus (Respiratory Syncytial Virus (RSV-A2), UniProt P03420 26-574). Put plainly: cell-based or functional assay.
Experiment [1] concerns the target RSV prefusion F (preF), DS-Cav1 (Respiratory Syncytial Virus, UniProt P03420 26-513). Put plainly: BLI, IgG on anti-human IgG sensor, 100 nM antigen, 1:1 fit. (In general: BLI is a label-free optical method that tracks binding on a fibre tip over time.)
The target in experiment [2] is RSV postfusion F (postF), F ΔFP (Respiratory Syncytial Virus, UniProt P03420 26-513). The description is as above.
The target in experiment [3] is T1, RSV postfusion F (postF), subtype A (respiratory syncytial virus subtype A, UniProt P03420 26-513).
T1 construct: also called Postfusion subtype A; F deltaFP
The experiment in a line: BLI.

Experiment [4] addresses T2, RSV prefusion F (preF), subtype B (respiratory syncytial virus subtype B).
T2 construct: also called Prefusion subtype B
The experiment in a line: BLI, IgG.

In experiment [5] the target is RSV F on RSV subtype A virus (mKate-RSV A2) (respiratory syncytial virus A2, UniProt P03420 26-574). Put plainly: cell-based or functional assay.
The target in experiment [6] is RSV F on RSV subtype B virus (mKate-RSV B 18537) (respiratory syncytial virus B 18537, UniProt P13843 26-574). Put plainly: cell-based or functional assay.

Numbering of substitutions follows the chain as printed.

B1: ADI-41456 (antibody, V domains shown)
VH: EVQLLESGGGLFHPGGSLTLSCVASGFTLSTYYMHWVRQAPGKGLVWVARINSDGGYTTYADSVKGRFTVSRDNAKNTLYLQMNSLRVEDTAVYYCAREWVEFDSWGQGTLVTVSS
VL: NFMLTQPHSVSASPGKTVTISCTRSSGNIASNYVQWYQQRPGSSPTTVITEDNQRPSGVPDRFSGSIDSSSNSASLTISGLKTEDEADYYCQSYDSSTYVFGTGTKLTVL
notes: also called Ab 740; Antibody Number 740
Regarding B1, in the experiment with RSV F on RSV-A2 virus, the “Neutralization IC50 (RSV subtype A)” value is greater than 25 mg/L. For the same molecule, the Kd (in general, the constant that tells how readily two partners part at equilibrium) in experiment [1] came to 1.48 nM; in experiment [2], 0.267 nM.

B2: ADI-25562 (antibody, V domains shown)
VH: QVQLVESGGGLVKPGGSLRLSCAASGFTFSDYYMSWIRQAPGKGLEWVSYISSSSSYTNYADSVKGRFTISRDNAKNSLYLQMNSLRAEDTAVYYCARVGYSSSWYNYFDYWGQGTLVTVSS
VL: SYVLTQPPSVSGAPGQRVTISCTGSSSNIGAGYDVHWYQQLPGTAPKLLIYGNSNRPSGVPDRFSGSKSGTSASLAITGLQAEDEADYYCQSYDSSLSGPVFGGGTKLTVL
notes: full-length IgG; also called Ab 453
Turning to B2, in experiment [3], the binding result is “no binding”. The molecule also returned a Kd in experiment [4] of 3.32 nM. The “Neut IC50 subtype A” value in experiment [5] was 1.18 mg/L. Moreover, in experiment [6], the “Neut IC50 subtype B” value was determined as 1.14 mg/L.

B3: ADI-19420 (antibody, V domains shown)
VH: EVQLLESGGGLVKPGGSLRLSCAASGFTFSSYSMNWVRQAPGKGLEWVSSISSSSSYIYYADSVKGRFTISRDNAKNSLYLQMNSLRAEDTAVYYCARVGWGYSYGYWFDPWGQGTLVTVSS
VL: B2 VL with S1Q, Y2S, P100V
notes: full-length IgG
In the case of B3, the binding result in experiment [3] is “no binding”. The molecule also registered a Kd in experiment [4] of 2.47 nM. Also, the “Neut IC50 subtype A” value in experiment [5] turned out to be 0.55 mg/L. For the same molecule, in experiment [6], the “Neut IC50 subtype B” value was 0.64 mg/L.

B4: ADI-14357 (antibody, V domains shown)
VH: EVQLVESGGGVVQPGRSLRLSCAASGFTFSNYAMHWVRQAPGKGLEWVSIISYDGSNKYYADSVKGRFTISRDNSKNTLYLQINSLRTEDTAVYYCARARKRIPIVVVTAPYYYGMDVWGQGTTVTVSS
VL: DIRVTQSPSSLSASVGDRVTITCRASQSISSYLHWYQQQPGKAPNLLIYAASNLQSGVPSRFSGSGSGTDFTLTISSLQPEDFATYYCQQSYTTPHTFGQGTKVEIK
notes: full-length IgG; also called Ab 25
Consider B4, for which the binding result in experiment [3] was “no binding”. Binding in experiment [4] was put at a Kd of 0.306 nM. For the same molecule, the “Neut IC50 subtype A” value in experiment [5] worked out at 1.24 mg/L. In addition, the “Neut IC50 subtype B” value in experiment [6] amounted to 0.88 mg/L.

B5: ADI-19421 (antibody, V domains shown)
VH: EVQLLESGGGVVQPGRSLRLSCAASGFTFSSYGMHWVRQAPGKGLEWVAVISYDGSNKYYADSVKGRFTISRDNSKNTLYLQMNSLRAEDTAVYYCAKDIHHVLRFLDPDYWGQGTLVTVSS
VL: QSVLIQPASVSGFPGQSITISCTGTSSDVGGYNYVSWYQQHPGKAPKLMIYEVSNRPSGVSNRFSGSKSGNTASLTISGLQAEDEADYYCSSYTSSSTLVFGGGTKLTVL
notes: full-length IgG
For the molecule B5, in experiment [3], the binding result is recorded as “no binding”. Moreover, the Kd in experiment [4] stood at 5.42 nM. The “Neut IC50 subtype A” value in experiment [5] stood at 10 mg/L. Also, the “Neut IC50 subtype B” value in experiment [6] was 3.3 mg/L.

B6: ADI-25567 (antibody, V domains shown)
VH: QVQLQQWGAGLLKPSETLSLTCAVYGGSFSGYYWSWIRQPPGKGLEWIGEINHSGSTNYNPSLKSRVTISVDTSKNQFSLKLSSVTAADTAVYYCARGLPRFGVVTPNWFDPWGQGTLVTVSS
VL: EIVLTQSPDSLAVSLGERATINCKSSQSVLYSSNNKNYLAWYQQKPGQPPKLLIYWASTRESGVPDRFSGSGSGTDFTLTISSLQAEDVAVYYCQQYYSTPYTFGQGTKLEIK
notes: full-length IgG
In the case of B6, the binding result in experiment [3] is on record as “no binding”. The same molecule yielded a Kd in experiment [4] of 3.83 nM. Besides, the “Neut IC50 subtype A” value in experiment [5] turned out to be 0.33 mg/L. For the same molecule, the “Neut IC50 subtype B” value in experiment [6] turned out to be 1.94 mg/L.

B7: ADI-41550 (antibody, V domains shown)
VH: QVQLVQSGAEVKMPGASVRVSCKASGYTLGSHGITWVRQAPGQGLEWMGWISANNFNTHYAQKFQGRVTMTTDTSTSTAYMELRSLRSDDTAVYYCAREVMGHMVETISFDYWGQGTLVTVSS
VL: QPVLTQPPSVSVAPGQTARITCGGNNIGSESVHWYQQKPGQAPVLVVHDDSDRPSGIPERFSGSNSGNTATLTISRVEAGDEADYYCQVWDFTPDHPVFGGGTKVTVL
As to B7, in the experiment with RSV F on RSV-A2 virus, the “Neutralization IC50 (RSV subtype A)” value is greater than 25 mg/L. This molecule also gave a Kd in experiment [2] of 25.7 nM.

B8: ADI-14364 (antibody, V domains shown)
VH: QVQLVQSGAEVKKPGESLKISCKGSGYSFTSHWIGWVRQMPGKGLEWMGITDPGDSDTRYSPSFQGQVTISADKSISTAYLQWSSLKASDTAMYYCAREPRRWMTTETNGPYYFDNWGQGTLVTVSS
VL: SYVLTQPPSVSVAPGKTARITCGGNNIGSKSVHWYQQKPGQAPVLVIYYDSDRPSGIPERFSGSNSGNTATLTISRVEAGDEADYYCQVWDSSSDNRVFGGGTKVTVL
notes: full-length IgG; also called Ab 32
With B8, the binding result in experiment [3] was “no binding”. The molecule further had a Kd in experiment [4] of 61.6 nM. In addition, the “Neut IC50 subtype A” value in experiment [5] is 0.03 mg/L. Also, the “Neut IC50 subtype B” value in experiment [6] was determined as 2.39 mg/L.

B9: ADI-19424 (antibody, V domains shown)
VH: EVQLLESGGGLVQPGGSLRLSCAASGFTVSSNYMSWVRQAPGKGLEWVSDIYSGGRTDYADSVKGRFTISRDNSKNTLDLQMNSLRAEDTAVYYCARETLGMDHWYFDLWGRGTLVTVSS
VL: B7 VL with V3G, Q16K, E30K, H48Y, F92S, P94S, V105L
notes: full-length IgG
As to B9, the binding result in experiment [3] is reported as “no binding”. For the same molecule, binding in experiment [4] was put at a Kd of 1.71 nM. Besides, the “Neut IC50 subtype A” value in experiment [5] stood at 0.08 mg/L. In addition, the “Neut IC50 subtype B” value in experiment [6] was found to be 0.21 mg/L.

B10: ADI-19422 (antibody, V domains shown)
VH: not shown
VL: B8 VL with S1Q, Y2P, I47V, Y49D, N96H, R97W, V105L
notes: full-length IgG
For B10, the binding result in experiment [3] is “no binding”. The Kd in experiment [4] stood at 10.8 nM. Also, in experiment [5], the “Neut IC50 subtype A” value was determined as 0.73 mg/L. For the same molecule, the “Neut IC50 subtype B” value in experiment [6] came to 1.9 mg/L.

B11: ADI-25555 (antibody, V domains shown)
VH: QVQLVQSGGGLVKPGGSLRLSCAASGFTFSSYSMNWVRQAPGKGLEWVSSISSSSSYIYYADSVKGRFTISRDNAKNSLYLQMNSLRAEDTAVYYCARQRGGIAVAGTYFDLWGRGTLVTVSS
VL: QPVLTQPPSVSGAPGQRVTISCTGSSSNIGAGYDVHWYQQLPGTAPKLLIYGNSNRPSGVPDRFSGSKSGTSASLAITGLQAEDEADYYCQSYDSTVVFGGGTKLTVL
notes: full-length IgG
Turning to B11, in experiment [3], the binding result is “no binding”. The Kd in experiment [4] was 44.7 nM. For the same molecule, the “Neut IC50 subtype A” value in experiment [5] amounted to 18.6 mg/L. In addition, in experiment [6], the “Neut IC50 subtype B” value was 12.1 mg/L.

B12: ADI-41455 (antibody, V domains shown)
VH: QVQLQESGPGLVKPSQTLSLTCSVSEGSVISGDYYWSWIRQSPGKGLEWLGYIHYSGSTYYNPSLKSRVTISVDTSKKQFSLKLSSVTAADTAVYYCARDLGCIGGVCSAYGLEHNYYFGMDVWGQGTTVTVSS
VL: EIVLTQSPATLSLSPGERATLSCRASQSVSSYLAWYQQKPGQAPRLLIYTASNRATGIPARFSGSGSGTDFTLTISSLEPEDFAVYYCQQRSSWPPYTFGQGTKLEIK
For B12, in the experiment with RSV F on RSV-A2 virus, the “Neutralization IC50 (RSV subtype A)” value is greater than 25 mg/L. Also, the Kd came to 1.53 nM in experiment [1] and 0.638 nM in experiment [2].

B13: ADI-14367 (antibody, V domains shown)
VH: EVQLLESGGGLVQPGGSLRLSCAASGFTFGSYDMNWVRQAPGKGLEWVSGISGSGDATYYADSVKGRFTISRDNSKNMLYLQMNSLSAEDMAVYYCARDRAFTMKYNSNWYKIYWGQGTMVTVSS
VL: EIVLTQSPGTLSLSPGERATLSCRASQSVTSSYLAWYQQKPGQAPRLLIYGAFSRATGIPDRFSGSGSGTDFTLTISRLEPEDFAVYYCHHYGTSRWTFGQGTKVDIK
notes: full-length IgG; also called Ab 35
B13: the binding result in experiment [3] is listed as “no binding”. This molecule yielded an equilibrium dissociation constant (Kd) in experiment [4] of 0.269 nM. The “Neut IC50 subtype A” value in experiment [5] stood at 3.94 mg/L. For the same molecule, the “Neut IC50 subtype B” value in experiment [6] was determined as 0.33 mg/L.

B14: ADI-14347 (antibody, V domains shown)
VH: EVQLVESGGGLVKPGGSLRLSCAASGFTFRDYYMNWIRQAPGKGLEWVSDISASSSYTNYADSVKGRFTISRDNAKTSLYLQMNSLRAEDTAVYYCAREVVTAMGGYYFDYWGQGTLVTVSS
VL: QSVVTQPPSVSGAPGQRVTISCTGSSSNIGAGYDVHWYQQLPGTAPKLLIYGNNNRPSGVPDRFSGSKSGTSASLAITGLQAEDEADYYCQSYDSSLSGSGVFGTGTKVTVL
notes: full-length IgG; also called Ab 15
For B14, in experiment [3], the binding result was “no binding”. Also, the Kd in experiment [4] amounted to 2.54 nM. The “Neut IC50 subtype A” value in experiment [5] came out at 0.11 mg/L. The “Neut IC50 subtype B” value in experiment [6] is 0.05 mg/L.

B15: ADI-25549 (antibody, V domains shown)
VH: QVQLVQSGGGLVKPGGSLRLSCAASGFTFSSYSMNWVRQAPGKGLEWVSSISSSSSYIYYADSVKGRFTISRDNAKNSLYLQMNSLRAEDTAVYYCARVSSGWYGGGAYYFDYWGQGTLVTVSS
VL: B14 VL with N54S, G99A, S100L, G101Y
notes: full-length IgG
As to B15, the binding result in experiment [3] was “no binding”. For the same molecule, the affinity in experiment [4], expressed as Kd, was 28.8 nM. Moreover, the “Neut IC50 subtype A” value in experiment [5] came out at 11.5 mg/L. Also, the “Neut IC50 subtype B” value in experiment [6] is 6.02 mg/L.

B16: ADI-19425 (antibody, V domains shown)
VH: EVQLVESGGGLVKPGGSLRLSCAASGFTFSSYSMNWVRQAPGKGLEWVSSISSSSSYIYYADSVKGRFTISRDNAKNSLYLQMNSLRAEDTAVYYCARLGYCSGGSCHFDYWGQGTLVTVSS
VL: B14 VL with S2P, V4L, N54S, S100F, G101Y, V109L
notes: full-length IgG; also called Ab 140
Take B16: in experiment [3], the binding result is on record as “no binding”. In experiment [4], this molecule gave a Kd of 1.37 nM. Besides, the “Neut IC50 subtype A” value in experiment [5] came out at 0.02 mg/L. Besides, the “Neut IC50 subtype B” value in experiment [6] worked out at 0.04 mg/L.
